# The Human Domainome abundance scans (Beltran et al. 2025)
# ± gives the uncertainty stated by the source.
# B1: REST corepressor 3, residues 87 to 134; numbered along this chain, Q9P2K3 (parent)
# chain: DEWTVEDKVLFEQAFSFHGKSFHRIQQMLPDKTIASLVKYYYSWKKTR
# B2: Tyrosine-protein kinase Lck, residues 63 to 120; numbered along this chain, P06239 (parent)
# chain: DNLVIALHSYEPSHDGDLGFEKGEQLRILEQSGEWWKAQSLTTGQEGFIPFNFVAKAN
# Variants of: B1
# Test: abundance fitness (aPCA) (normalised: wild type 0, dead -1); higher = more abundant; growth selection in yeast, the domain comes from the species named
# Settings: Homo sapiens
row,Variant,abundance fitness
1,I34C,-0.869 ± 0.2
2,I34A,-0.845 ± 0.15
3,I34Q,-0.768 ± 0.1
4,I34M,-0.255 ± 0.062
5,I34P,-1.08 ± 0.36
6,I34T,-0.644 ± 0.16
7,I34G,-0.767 ± 0.11
8,L29K,-0.645 ± 0.44
9,L29C,-0.795 ± 0.46
10,L29F,-0.302 ± 0.24
11,L29R,-0.771 ± 0.24
12,L29W,-0.932 ± 0.35
13,L29G,-0.794 ± 0.2
14,L29Q,-0.692 ± 0.3
15,L29I,-0.315 ± 0.43
16,L29A,-0.832 ± 0.27
17,K46F,-0.54 ± 0.38
18,K46G,-0.202 ± 0.069
19,K46T,-0.756 ± 0.2
20,K46A,-0.053 ± 0.074
21,K46E,-0.575 ± 0.22
22,K46P,-0.782 ± 0.26
23,K46L,-0.645 ± 0.13
24,K46H,0.242 ± 0.13

row,Variant,abundance fitness
1,K46V,-0.399 ± 0.12
2,K46S,-0.467 ± 0.12
3,K46W,-0.729 ± 0.13
4,Y42W,0.056 ± 0.076
5,Y42R,0.234 ± 0.062
6,Y42E,0.203 ± 0.084
7,Y42V,0.02 ± 0.075
8,Y42T,0.103 ± 0.072
9,Y42G,-0.036 ± 0.052
10,Y42L,0.015 ± 0.042
11,Y42P,-0.821 ± 0.11
12,Y42H,-0.236 ± 0.17
13,Y42Q,-0.117 ± 0.13
14,Y42A,-0.234 ± 0.073
15,Y42N,0.216 ± 0.15
16,Y42I,-0.11 ± 0.088
17,Y42M,0.311 ± 0.1
18,Y42C,-0.132 ± 0.16
19,Y42D,0.252 ± 0.11
20,Y42F,-0.555 ± 0.31
21,Y42S,0.102 ± 0.075
22,R48L,0.326 ± 0.29
23,R48E,0.016 ± 0.21
24,R48G,0.024 ± 0.32

row,Variant,abundance fitness
1,W44R,-0.541 ± 0.16
2,W44T,-0.394 ± 0.22
3,W44L,-0.329 ± 0.15
4,W44F,0.414 ± 0.18
5,W44K,-0.393 ± 0.3
6,W44A,-0.78 ± 0.21
7,W44D,0.738 ± 0.36
8,W44S,-0.548 ± 0.29
9,W44V,-1 ± 0.43
10,W44G,-0.649 ± 0.14
11,L37E,-0.628 ± 0.36
12,L37I,-0.35 ± 0.43
13,L37S,-0.773 ± 0.25
14,L37R,-0.885 ± 0.22
15,L37T,-0.542 ± 0.41
16,L37V,-0.618 ± 0.23
17,L37D,-0.465 ± 0.47
18,L37K,-0.714 ± 0.37
19,L37G,-0.835 ± 0.19
20,L37M,-0.711 ± 0.43
21,L37A,-0.673 ± 0.31
22,M28H,-0.364 ± 0.44
23,M28F,-0.502 ± 0.46
24,M28Y,-0.635 ± 0.47

row,Variant,abundance fitness
1,M28P,-0.733 ± 0.31
2,M28S,-0.517 ± 0.19
3,M28K,-0.686 ± 0.19
4,M28Q,-0.429 ± 0.48
5,M28T,-0.461 ± 0.39
6,M28G,-0.806 ± 0.25
7,M28W,-0.589 ± 0.23
8,M28R,-0.618 ± 0.2
9,M28L,-0.558 ± 0.15
10,M28E,-0.616 ± 0.3
11,M28A,-0.382 ± 0.2
12,A35R,-0.016 ± 0.047
13,A35K,-0.124 ± 0.14
14,A35H,-0.214 ± 0.14
15,A35C,-0.401 ± 0.12
16,A35W,-0.439 ± 0.12
17,A35Y,-0.451 ± 0.23
18,A35P,-0.345 ± 0.17
19,A35F,-0.098 ± 0.069
20,A35M,-0.203 ± 0.11
21,A35V,-0.545 ± 0.11
22,A35T,0.073 ± 0.1
23,A35E,0.308 ± 0.12
24,A35D,-0.391 ± 0.28

row,Variant,abundance fitness
1,A35N,-0.145 ± 0.15
2,A35G,0.045 ± 0.044
3,A35I,-0.062 ± 0.046
4,A35Q,-0.258 ± 0.15
5,A35L,-0.113 ± 0.061
6,D31A,-0.429 ± 0.13
7,D31G,0.029 ± 0.073
8,D31P,-0.621 ± 0.33
9,D31H,-0.295 ± 0.3
10,D31K,-0.136 ± 0.21
11,D31E,0.026 ± 0.17
12,D31R,-0.253 ± 0.13
13,D31I,-0.733 ± 0.43
14,D31V,-0.517 ± 0.14
15,D31W,-0.539 ± 0.23
16,D31T,-0.316 ± 0.25
17,D31Y,-0.027 ± 0.3
18,D31S,0.225 ± 0.091
19,D31N,-0.337 ± 0.46
20,D31C,-0.45 ± 0.22
21,D31L,-0.314 ± 0.13

# Variants of: B2
# Test: as above
# Settings: Homo sapiens
row,Variant,abundance fitness
1,F20G,-0.921 ± 0.087
2,E21Q,0.007 ± 0.13
3,E21D,-0.205 ± 0.19
4,E21P,-0.914 ± 0.18
5,E34F,-0.138 ± 0.2
6,E34M,-0.262 ± 0.1
7,E34H,-0.205 ± 0.14
8,E34L,-0.225 ± 0.078
9,R27C,-0.208 ± 0.13
10,L3S,-0.343 ± 0.088
11,L41H,-0.765 ± 0.18
12,T42G,-0.248 ± 0.079
13,Q31E,0.025 ± 0.12
14,H14N,0.12 ± 0.14
15,H14G,-0.059 ± 0.072
16,A55N,-0.231 ± 0.19
17,A38Y,-0.714 ± 0.22
18,A57P,-0.046 ± 0.095
19,K37G,-0.96 ± 0.14
20,K37P,-0.808 ± 0.18
21,K37A,-0.615 ± 0.12
22,K37Y,-0.177 ± 0.14
23,G23V,-1.04 ± 0.12
24,E24T,-0.754 ± 0.16
25,N2F,0.034 ± 0.45

row,Variant,abundance fitness
1,T43S,-0.101 ± 0.088
2,G19E,-0.393 ± 0.11
3,E11G,-0.431 ± 0.066
4,P12K,-0.471 ± 0.12
5,G47Q,-0.986 ± 0.18
6,G47L,-0.789 ± 0.1
7,K22R,-0.252 ± 0.074
8,S9T,-0.046 ± 0.12
9,G16M,-0.259 ± 0.11
10,V54A,-0.663 ± 0.11
11,V54D,-0.926 ± 0.2
12,E46I,0.131 ± 0.12
13,Q45G,-0.308 ± 0.068
14,Q45M,-0.092 ± 0.11
15,I28Y,-0.459 ± 0.2
16,I28R,-0.874 ± 0.1
17,I28L,-0.074 ± 0.088
18,Y10V,-0.485 ± 0.1
19,L29A,-0.645 ± 0.092
20,L29K,-0.325 ± 0.14
21,S13D,-0.062 ± 0.12
22,H8D,0.003 ± 0.13
23,F48E,-0.286 ± 0.085
24,S32P,-0.407 ± 0.14
25,S32Y,-0.082 ± 0.12
